Test results taken from the RNAGym collection of RNA variant scans (doi:10.1093/molbev/msab373).

B1: Azoarcus group I ribozyme (parent)
chain: GUGCCUUGCGCCGGGAAACCACGCAAGGGAUGGUGUCAAAUUCGGCGAAACCUAAGCGCCCGCCCGGGCGUAUGGCAACGCCGAGCCAAGCUUCGGCGCCUGCGCCGAUGAAGGUGUAGAGACUAGACGGCACCCACCUAAGGCAAACGCUAUGGUGAAGGCAUAGUCCAGGGAGUGGCGAAAGUCACACAAACCGG

Variants of: B1
Assay: reverse-splicing fitness (ratio to wild type); higher = more active; in vitro selection; Mg2+ level not given
How it was run: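 An in vitro group I ribozyme library with randomized positions was T7-transcribed and gel-purified. In triplicate, 10 pmol RNA in EPPS pH 7.5 was reacted with 50 pmoles of a 30-nt RNA substrate for 1 h at 37 °C across several added MgCl2 levels (1–48 mM), then stopped with EDTA. Products were reverse transcribed from a substrate-complementary primer, PCR-amplified and sequenced (HiSeq 4000). Fitness is a variant's read proportion after selection over that before, normalised to wild type.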
C82G A111G A120C A145U C150U U176A gave a reverse-splicing fitness of 0.0202. C82G A111G A120C A145U C150U U176C showed a reverse-splicing fitness of 0.0348. Variant C82G A111G A120C A145U C150U U176G has a reverse-splicing fitness of 0.00869. C82G A111G A120C A145U C169A showed a reverse-splicing fitness of 0.00712. Variant C82G A111G A120C A145U C169A U176A has a reverse-splicing fitness of 0.0147. Work on C82G A111G A120C A145U C169A U176C yielded a reverse-splicing fitness of 0.0149. Variant C82G A111G A120C A145U C169A U176G has a reverse-splicing fitness of 0.00508. Work on C82G A111G A120C A145U C169G yielded a reverse-splicing fitness of 0.00799. Work on C82G A111G A120C A145U C169G U176A yielded a reverse-splicing fitness of 0.0157. Work on C82G A111G A120C A145U C169G U176C yielded a reverse-splicing fitness of 0.0163. In the case of C82G A111G A120C A145U C169G U176G, the reverse-splicing fitness is reported as 0.00477. Variant C82G A111G A120C A145U C169U has a reverse-splicing fitness of 0.0157. Work on C82G A111G A120C A145U C169U U176A yielded a reverse-splicing fitness of 0.0129. In the case of C82G A111G A120C A145U C169U U176C, the reverse-splicing fitness is reported as 0.0124. C82G A111G A120C A145U C169U U176G gave a reverse-splicing fitness of 0.00484. C82G A111G A120C A145U U176A gave a reverse-splicing fitness of 0.0294. In the case of C82G A111G A120C A145U U176C, the reverse-splicing fitness is reported as 0.0434. In the case of C82G A111G A120C A145U U176G, the reverse-splicing fitness is reported as 0.00776. C82G A111G A120C C150A showed a reverse-splicing fitness of 0.0154. With C82G A111G A120C C150A C169A the reverse-splicing fitness was 0.0106. With C82G A111G A120C C150A C169A U176A the reverse-splicing fitness was 0.0223. Variant C82G A111G A120C C150A C169A U176C has a reverse-splicing fitness of 0.0204. C82G A111G A120C C150A C169A U176G showed a reverse-splicing fitness of 0.00841. C82G A111G A120C C150A C169G showed a reverse-splicing fitness of 0.00943. C82G A111G A120C C150A C169G U176A gave a reverse-splicing fitness of 0.0218. C82G A111G A120C C150A C169G U176C showed a reverse-splicing fitness of 0.0218. Variant C82G A111G A120C C150A C169G U176G has a reverse-splicing fitness of 0.00655. For C82G A111G A120C C150A C169U, the reverse-splicing fitness was 0.0123. For C82G A111G A120C C150A C169U U176A, the reverse-splicing fitness was 0.0165. Variant C82G A111G A120C C150A C169U U176C has a reverse-splicing fitness of 0.0175. For C82G A111G A120C C150A C169U U176G, the reverse-splicing fitness was 0.00877. In the case of C82G A111G A120C C150A U176A, the reverse-splicing fitness is reported as 0.014. C82G A111G A120C C150A U176C showed a reverse-splicing fitness of 0.0277. For C82G A111G A120C C150A U176G, the reverse-splicing fitness was 0.0141. C82G A111G A120C C150G showed a reverse-splicing fitness of 0.0105. With C82G A111G A120C C150G C169A the reverse-splicing fitness was 0.00976. Work on C82G A111G A120C C150G C169A U176A yielded a reverse-splicing fitness of 0.0102. In the case of C82G A111G A120C C150G C169A U176C, the reverse-splicing fitness is reported as 0.016. For C82G A111G A120C C150G C169A U176G, the reverse-splicing fitness was 0.00813. In the case of C82G A111G A120C C150G C169G, the reverse-splicing fitness is reported as 0.008. C82G A111G A120C C150G C169G U176A gave a reverse-splicing fitness of 0.00929. With C82G A111G A120C C150G C169G U176C the reverse-splicing fitness was 0.0117. C82G A111G A120C C150G C169G U176G gave a reverse-splicing fitness of 0.00647. Work on C82G A111G A120C C150G C169U yielded a reverse-splicing fitness of 0.0104. C82G A111G A120C C150G C169U U176A gave a reverse-splicing fitness of 0.00806. C82G A111G A120C C150G C169U U176C gave a reverse-splicing fitness of 0.0135. In the case of C82G A111G A120C C150G C169U U176G, the reverse-splicing fitness is reported as 0.0076. C82G A111G A120C C150G U176A showed a reverse-splicing fitness of 0.00594. Work on C82G A111G A120C C150G U176C yielded a reverse-splicing fitness of 0.0121. Work on C82G A111G A120C C150G U176G yielded a reverse-splicing fitness of 0.00412. C82G A111G A120C C150U showed a reverse-splicing fitness of 0.0417. C82G A111G A120C C150U C169A showed a reverse-splicing fitness of 0.0102. For C82G A111G A120C C150U C169A U176A, the reverse-splicing fitness was 0.0199. With C82G A111G A120C C150U C169A U176C the reverse-splicing fitness was 0.0182. Variant C82G A111G A120C C150U C169A U176G has a reverse-splicing fitness of 0.00693. Work on C82G A111G A120C C150U C169G yielded a reverse-splicing fitness of 0.00909. With C82G A111G A120C C150U C169G U176A the reverse-splicing fitness was 0.0185. Work on C82G A111G A120C C150U C169G U176C yielded a reverse-splicing fitness of 0.0206. C82G A111G A120C C150U C169G U176G showed a reverse-splicing fitness of 0.00572. For C82G A111G A120C C150U C169U, the reverse-splicing fitness was 0.0144. C82G A111G A120C C150U C169U U176A gave a reverse-splicing fitness of 0.0166. C82G A111G A120C C150U C169U U176C gave a reverse-splicing fitness of 0.017. Work on C82G A111G A120C C150U C169U U176G yielded a reverse-splicing fitness of 0.00815. With C82G A111G A120C C150U U176A the reverse-splicing fitness was 0.0201. With C82G A111G A120C C150U U176C the reverse-splicing fitness was 0.0344. With C82G A111G A120C C150U U176G the reverse-splicing fitness was 0.0127. C82G A111G A120C C169A showed a reverse-splicing fitness of 0.0101. With C82G A111G A120C C169A U176A the reverse-splicing fitness was 0.017. C82G A111G A120C C169A U176C showed a reverse-splicing fitness of 0.0162. Variant C82G A111G A120C C169A U176G has a reverse-splicing fitness of 0.00532. Work on C82G A111G A120C C169G yielded a reverse-splicing fitness of 0.00841. C82G A111G A120C C169G U176A gave a reverse-splicing fitness of 0.0164. In the case of C82G A111G A120C C169G U176C, the reverse-splicing fitness is reported as 0.0193. Work on C82G A111G A120C C169G U176G yielded a reverse-splicing fitness of 0.00531. C82G A111G A120C C169U gave a reverse-splicing fitness of 0.0179. Work on C82G A111G A120C C169U U176A yielded a reverse-splicing fitness of 0.0138. For C82G A111G A120C C169U U176C, the reverse-splicing fitness was 0.0134. Variant C82G A111G A120C C169U U176G has a reverse-splicing fitness of 0.00596. In the case of C82G A111G A120C U176A, the reverse-splicing fitness is reported as 0.0255. Variant C82G A111G A120C U176C has a reverse-splicing fitness of 0.045. For C82G A111G A120C U176G, the reverse-splicing fitness was 0.011. For C82G A111G A120G, the reverse-splicing fitness was 0.0208. With C82G A111G A120G A145C the reverse-splicing fitness was 0.0157.
